Experiments:
[1] = tested on: AP-1 dependent reporter gene; assay: AP-1 dependent reporter gene (TRE-lacZ), microinjection into Rat-1 cells; format: cell-based; conditions: for suppression of AP-1 reporter induction caused by anti-RKIP antibodies: MEK inhibitors given 1 h before microinjection
Source text: In one embodiment, the RKIP protein inhibiting agent can be an antibody specifically recognizing an RKIP motif. For example, to examine the relevance of the interaction between RKIP and the kinases of the Raf/MEK/ERK module in mammalian cells, endogenous RKIP \was inhibited by antibody microinjection. Since the AP-1 transcription factor is a major target of Raf signaling (Kortenjann et al. Mol. Cell. Biol. 14:4815-4824, 1994;Rapp et al., Oncogene 9:3493-3498, 1994; Kolch et al. Oncogene 8:361-370, 1993), the influence of RKIP on AP-1 activity was tested as shown in FIG. 3.
Microinjections of antibodies and reporter genes were performed as described previously (Lavinsky et al. Proc. Natl. Acad. Sci. USA 95:2920-2925, 1998; Rose et al. J. Cell. Biol. 119:1405-1411, 1992). Briefly, quiescent Rat-1 cells were microinjected with the reporter plasmids and antibodies and either left unstimulated or treated with 200 ng/ml TPA or 20 μg/ml forskolin. The RKIP antiserum was purified over a GST-RKIP affinity column. NIH3T3 cells were stained with an activation specific anti-phospho-ERK monoclonal antibody (Sigma). ERK phosphorylation was quantified by densitometry. For this purpose areas with microinjected cells were randomly photographed, and the staining intensity of whole individual cells was measured using the PcBAS software.
(§1) In one embodiment, the present invention provides a method of identifying a cell growth modulating agent by analyzing the effect of a candidate agent on the expression of an RKIP responsive reporter. For example, to show the effect of the RKIP on the activity of the AP-1 mediated transcription, NIH 3T3 cells were co-transfected with a 3xTRE-CAT reporter and the above described expression plasmids. NIH 3T3 and 208F cells were transfected in 6-well plates with 1 μg of pCMV5-BXB and 3 μg of p53/RKIP using Superfect (Qiagen).
AP-1 luciferase assays and microinjection experiments with affinity-purified RKIP antiserum and TRE-lacZ reporter plasmids were carried out as previously described (Yeung et al. Nature, 401:173-177, 1999). […] This induction was due to the activation of MEK, since it could be suppressed by two structurally different MEK inhibitors, U0126 and PD98059 (FIG. 7(a)). […] These antibodies are therefore useful tools for investigating the molecular mechanism by which RKIP works. The RKIP antiserum interfered with the binding of Raf-1 and MEK to RKIP (FIG. 7(b)). […] Furthermore, the RKIP antibodies reversed the inhibitory effect of RKIP on MEK phosphorylation by Raf-1 (FIG. 7(c)).

NIH 3T3 and 208F cells = assay: Transformation assays (morphological transformation, focus formation, soft agar); format: cell-based
Source text: Additionally, NIH 3T3 cells were transfected with BXB, alone or together with RKIP (linked to neomycin/G418 resistance encoding gene). The G418-resistant colonies were counted and scored for morphological transformation. Aliquots of the same transfection were allowed to grow to confluency without drug and were scored for focus formation. A BXB-transformed cell line was infected with LXSH-RKIP retrovirus or LXSH (hygromycin resistant) and seeded in soft agar in the presence of hygromycin. […] The data are expressed as the reduction in focus formation relative to focus formation upon co-transfection with empty vector (set to 100%).

Raf-1-MEK complexes = target: T1, Raf-1-MEK complexes (Homo sapiens, UniProt P04049); assay: Disruption of the Raf-1-MEK complex on glutathione Sepharose beads; format: binding; conditions: in vitro, purified RKIP
T1 construct: made in house; host or cells: Sf-9 insect cells
Procedure: In vitro binding assays contained 5 μg of GST-fusion protein immobilized on glutathione Sepharose beads and 0.5-5 μg purified recombinant protein in PBS supplemented with 10% bovine serum as nonspecific competitor. Sf-9 cell lysates were used as source of Raf proteins (Hafner et al., 1994, Mol. Cell. Biol. 14: 6696-6703). After incubation for 1 hour at 4° C. the samples were washed 4 times with PBS, resolved by SDS-PAGE and blotted. The blots were developed using ECL (Amersham).
GST-MEK and Raf-1 were co-expressed in Sf-9 cells. The GST-MEK-Raf-1 complex was purified by adsorption to glutathione Sepharose beads, washed, and resuspended in PBS. Purified RKIP was added at the concentrations indicated. After 1 hour at 4° C., the GST-MEK beads were washed three times with PBS and examined for associated proteins by Western blotting (WB) with the indicated antisera.

MEKK-1 = assay: MEK phosphorylation by immunoprecipitated MEKK-1; format: biochemical; conditions: MEKK-1 immunoprecipitated from COS-1 cells, knMEK substrate
Procedure: “BSA” indicates use of 15 μM bovine serum albumin; “Co.” substrate alone; and “kn”, kinase negative mutant. […] HA-MEK-DD or HA-MEK-1 expressed in COS-1 cells were immunoprecipitated with anti-HA antibodies from serum starved cells or TPA treated cells, respectively, and assayed for kinase activity. […] MEKK-1 was immunoprecipitated from transiently transfected COS-1 cells and used to phosphorylate knMEK.

AP-1 activity = assay: 3xTRE-CAT reporter in NIH 3T3 cells co-transfected with RKIP; format: cell-based; conditions: RKIP transfection
Procedure: as §1

[2] = tested on: cell lines resistant to apoptosis; assay: Sensitivity to apoptotic stimuli on RKIP expression; format: cell-based; conditions: expression of RKIP; data not shown
Raf-1 [3] = target: T2, Raf-1 (Homo sapiens, UniProt P04049); assay: In vitro kinase assay of reconstituted Raf/MEK/ERK cascade: Raf-1; format: biochemical
T2 construct: GST (cleaved yes); made in house; host or cells: Sf-9 insect cells
Procedure: (§2) Kinase assays were done as described in Hafner et al. (Mol. Cell. Biol. 14:6696-6703, 1994). Activated Raf-1 was generated by co-expressing GST-Raf-1 with v-Ras and Lck in Sf-9 cells and collected on glutathione Sepharose beads. Subsequent thrombin cleavage released Raf-1 which was fully active and >90% pure. To activate MEK and ERK in vitro, 20 ng activated Raf-1 was incubated with 40 ng purified His/MEK-1 and 250 ng GST-ERK-2 in Raf kinase buffer containing 20 μM ATP for 20 minutes at 30° C. To measure kinase activities at individual steps the respective downstream components were omitted. The activation reactions were diluted into 50 μl Raf kinase buffer containing 20 μm ATP to yield equimolar concentrations of the kinases to be assayed and incubated with increasing amounts of purified RKIP on ice for 10 minutes. Similar assays may be performed with smaller polypeptides comprising RKIP motifs, or even with a peptide consisting essentially of an RKIP motif as defined herein. Then, 2 μCi [^32P]-γ-ATP and recombinant substrates were added and incubated for 20 minutes at 30° C. As substrates 200 ng kinase negative His/MEK-1 was used for Raf, 1 μg kinase negative GST-ERK for MEK, and 1 μg GST-ELK (New England Biolabs) for ERK. In some assays 1 μg GST-MEK was used as Raf-1 substrate with identical results.

ERK [4] = target: T3, ERK (Homo sapiens, UniProt P28482); assay: In vitro kinase assay: ERK; format: biochemical; conditions: purified RKIP, recombinant proteins in vitro
T3 construct: GST; made in house
Procedure: as §2

MEK [5] = target: T4, MEK (Homo sapiens, UniProt Q02750); assay: HA-MEK immunoprecipitate kinase activity in transfected COS-1 cells; format: cell-based; conditions: co-transfection of RKIP, dose dependent
T4 construct: expressed in transfected cells; host or cells: COS-1
Procedure: (§3) The COS-1 cells were transfected as described (Catling et al., 1995, Mol. Cell. Biol. 15: 5214-5225) with 2 μg of HA-ERK-2, BXB, MEK and MEK-DD plasmids and the indicated amounts of p353/RKIP. The total amount of transfected DNA was kept constant using the appropriate vectors as carrier DNA. […] In addition, 0.1 μg of an AP1-Luc reporter was transfected for reporter gene assays. 48 hours post-transfection cells were serum starved for 20 hours and either left untreated or treated with TPA (200 ng/ml) or serum for 5 hours before being collected. Cells were lysed and cell extracts were used for immunoblotting or assayed for luciferase activity. For the GFP sorting experiments 5×10^6 NIH 3T3 cells were electroporated with either 100 μg pCMVori, 50 μg pCMV-GFP, and 50 μg pHACT or 100 μg pASC143, 50 μg CMV-GFP, and 50 μg CMV-HAC. Two days later cells were trypsinized and sorted for green fluorescent cells by preparative FACS. 100,000 GFP-positive cells were lysed in SDS-gel sample buffer and immunoblotted.
(§4) COS-1 cells were transiently transfected with HA-MEK and increasing amounts of RKIP expression vectors. Serum starved cells were stimulated with 100 ng/ml TPA for 20 minutes, and the kinase activities of Raf-1 and HA-MEK immunoprecipitates were measured.

ERK [6] = assay: HA-ERK immunoprecipitate kinase activity in transfected COS-1 cells; format: cell-based
Procedure: as §3
COS-1 cells were transfected with the indicated expression plasmids plus increasing amounts of RKIP. HA-ERK-2 was immunoprecipitated and assayed with MBP.
COS-1 cells were transfected with the indicated expression vectors and the kinase activity of HA-ERK immunoprecipitates was examined.

Raf-1 [7] = assay: Raf-1 immunoprecipitate kinase activity in transfected COS-1 cells; format: cell-based; conditions: co-transfection of RKIP
Procedure: as §3, §4

GST-Raf-1 = target: T5, GST-Raf-1 (Homo sapiens, UniProt P04049); assay: Binding of purified RKIP to inactive and activated GST-Raf-1 beads; conditions: recombinant RKIP produced in E. coli
T5 construct: made in house; host or cells: Sf-9 insect cells
Procedure: Activated GST-Raf-1 was produced in Sf-9 insect cells co-infected with RasV12 and Lck, which results in a robust activation of the catalytic activity. GST-Raf-1 proteins were purified by adsorption to glutathione Sepharose beads and incubated with recombinant RKIP produced in E. coli. […] We also tested whether activation affected the binding of MEK and ERK to RKIP. Purified MEK and ERK were phosphorylated in vitro with recombinant Raf-1 or Raf-1 plus MEK, respectively, and incubated with GST or GST-RKIP beads. The binding reaction products were washed, separated on SDS gels, and immunoblotted with the appropriate antisera. […] However, since only small fractions of MEK and ERK become phosphorylated, we also carried out the phosphorylation in the presence of […] The blots were autoradiographed to detect phosphorylated MEK and ERK and were subsequently stained with the cognate antisera to visualize total protein bound. Under these conditions, binding of phosphorylated MEK and ERK to RKIP was evident.

MEK [8] = assay: In vitro kinase assay: MEK; format: biochemical
Procedure: as §2, with “results. […]” for “results.”

[9] = purified RKIP, recombinant proteins in vitro
[10] = microinjection of an RKIP expression vector

T3 sequence (P28482 whole entry): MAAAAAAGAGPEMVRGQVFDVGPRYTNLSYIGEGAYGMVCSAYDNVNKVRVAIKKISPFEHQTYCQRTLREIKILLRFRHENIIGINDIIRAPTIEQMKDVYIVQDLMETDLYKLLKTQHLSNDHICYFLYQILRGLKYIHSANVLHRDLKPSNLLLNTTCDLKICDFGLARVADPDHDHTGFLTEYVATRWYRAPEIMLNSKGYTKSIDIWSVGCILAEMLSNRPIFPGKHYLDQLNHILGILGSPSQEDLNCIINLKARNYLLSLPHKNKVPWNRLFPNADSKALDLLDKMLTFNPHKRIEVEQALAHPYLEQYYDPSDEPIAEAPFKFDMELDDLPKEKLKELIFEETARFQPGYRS

## N#CC(=C(/N)Sc1ccccc1N)/C(C#N)=C(\N)Sc1ccccc1N [U0126, reference compound]
[1]
  suppression of AP-1 reporter induction caused by anti-RKIP antibodies: suppressed

## COc1cccc(-c2cc(=O)c3ccccc3o2)c1N [PD98059, reference compound]
[1]
  suppression of AP-1 reporter induction caused by anti-RKIP antibodies: suppressed

B1: RKIP: Raf kinase inhibitor protein; used as purified recombinant protein or expressed from vector p353/RKIP (protein, UniProt P30086 2-187, looked up)
Phosphatidylethanolamine-bindi …: PVDLSKWSGPLSLQEVDEQPQHPLHVTYAGAAVDELGKVLTPTQVKNRPTSISWDGLDSGKLYTLVLTDPDAPSRKDPKYREWHHFLVVNMKGNDISSGTVLSDYVGSGPPKGTGLHRYVWLVYEQDRPLKCDEPILSNRSGDHRGKFKVASFRKKYELRAPVAGTCYQAEWDDYVPKLYEQLSGK
NIH 3T3 and 208F cells; RKIP overexpression
  induction of foci by v-fos or mutationally activated MEK alleles: only to a small extent
  v-src transformation: failed to inhibit
NIH 3T3 and 208F cells; RKIP overexpression with BXB
  total colony yield: decreased
NIH 3T3 and 208F cells; RKIP overexpression, morphological transformation, focus formation, anchorage independent growth
  transformation efficiency of BXB: significantly reduced
Raf-1-MEK complexes
  physical interaction between Raf-1 and MEK: disrupted
MEKK-1
  MEK phosphorylation by MEKK-1: did not prevent
AP-1 activity
  basal and BXB induced AP-1 activity: diminished
[2]
  sensitivity to apoptotic stimuli: rendered sensitive
Raf-1 [3]; Lineweaver-Burk plot, GST-MEK-1 substrate
  mechanism of Raf-1 inhibition: competitive inhibitor
Raf-1 [3]; in vitro
  Raf-1 autophosphorylation or phosphorylation of MBP by Raf-1: did not interfere
Raf-1 [3]; [9]
  phosphorylation of MEK by Raf-1: decreased
ERK [4]
  ELK phosphorylation by ERK: did not inhibit
MEK [5]
  activation of MEK by TPA: strongly inhibited
ERK [6]; RKIP co-transfection
  ERK activation by MEK-DD: did not affect
ERK [6]; RKIP overexpression
  activation of ERKs by v-Ras or v-Src oncogenes: downregulated
ERK [6]; increasing amounts of RKIP expression plasmid, dose dependent
  BXB induced activation of ERK: inhibited
Raf-1 [7]
  activation of Raf-1 by TPA: only a small influence
[1]; [10]
  AP-1 induction by TPA and BXB: impaired
  AP-1 stimulation by ERK-1: did not interfere
GST-Raf-1
  RKIP binding to activated versus inactive GST-Raf-1: Less RKIP bound
MEK [8]; immunoprecipitated from COS-1 cells
  inhibition of MEK-DD or MEK activated by TPA treatment of cells: failed to inhibit
MEK [8]; [9]
  ERK phosphorylation by MEK: did not inhibit

— patent publication US20040180341A1, “Transcriptional regulation of kinase inhibitors” (Brown University, priority 2003, published 2004)
